Laboratory results: publication PMC3202870

Target: PA63, the cell-associated furin-cleavage product of Bacillus anthracis protective antigen (PA83) (Bacillus anthracis)
Assay: SDS-PAGE and phosphoimaging of 125I-PA recovered from cells

For “PA63, the cell-associated furin-cleavage product of Bacillus anthracis protective antigen (PA83) (domain or fragment)”, which stoichiometry N is on record?
Its stoichiometry N is 7.
